The text below walks through data of the RNAGym collection of RNA variant scans (doi:10.1073/pnas.2313332121).

B1: TPR t1 (parent)
chain: GACCAAUCUGCCCUCAGAGCUCGAGAACAUCUUCGGAUGCAGAGGAGGCAGGCUUCGGUGGCGCGAUAGCGCCAACGUCCUCAACCUCCAAUGCAUCCCACCACAUGAUGAUGCCUGAAGAGCCUUGGUUUUUUG

The variants in this data set derive from B1. Kind of data set: polymerase ribozyme fitness, log enrichment relative to wild type (log ratio); higher = more active; in vitro selection for triplet polymerase activity. In a few lines: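 Libraries of mutants in each subunit of a heterodimeric triplet polymerase ribozyme were generated by PCR and transcribed. In triplicate, each went through one in vitro selection round: annealing with biotinylated primer, partner subunit and triplets; frozen incubation at −7 °C; gel excision of extended constructs; streptavidin-bead capture; RT-PCR. Fitness, taken from Illumina sequencing of input and output libraries, is the logarithm of a genotype's enrichment over wild-type enrichment, averaged across replicates with inverse-variance weights. The logarithm is base 2, and genotypes needed ≥10 input reads and ≥1 read per output to be kept.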
Turning to GACCAAUCUGCCCUCAGAGCUCGAGAACAUCUUCGGAUGCAGAGCAGCCAGGCUUCGGUGGCGCGAUAACGCCAACGUCCUCAACCUCCAAUGCAUCCCACCACAUGAUGAUGCCUGAAGAGCCUUGGUUUUUUG [G45C G48C G69A], the “polymerase ribozyme fitness (log ratio)” value is -4.32.

With GACCAAUCUGCCCUCAGAGCUCGAGAACAUCUUCGGAUGCAGAGCAGGCAGGCUUCGGUGGCGCGAUAGCGCCAACGUCCUCAACCUCCAAUGCAUCCCACCACAUGAUGACGCCUGAAGAGCCUUGGUUUUUUG [G45C U112C], the “polymerase ribozyme fitness (log ratio)” value came to 1.16.

As to GACCAAUCUGCCCUCAGAGCUCGAGAACAUCUUCGGAUGCAGAGCAGGCAGGCUUCGGUGGCGCGAUAGCGCCAACGUCUUCAACCACCAAUGCAUCCCACCACAUGAUGAUGCCUGAAGAGCCUUGGUUUUUUG [G45C C80U U87A], the “polymerase ribozyme fitness (log ratio)” value is -2.93.

GACCAAUCUGCCCUCAGAGCUCGAGAACAUCUUCGGAUGCAGAGCAGGCAGGCUUCGGUGGCGCGAUAGCGCCAACAUCCUGAACCUCGAAUGCAUCCCACCACAUGAUGAUGCCUGAAGAGCCUUGGUUUUUUG [G45C G77A C82G C89G]: the “polymerase ribozyme fitness (log ratio)” value is -3.97.

Consider GACCAAUCUGCCCUCAGAGCUCGAGAACAUCUUCGGAUGCAGAGCAGGCAGGCUUCGGUGGCGCGAUAGCGCCAACGUCCUCAACCUCCAAUGCAUCCCAACACACGAUGAUGCCUGAAGAGCCUUGGUUUUUUG [G45C C101A U106C], for which the “polymerase ribozyme fitness (log ratio)” value is -2.07.

In the case of GACCAAUCUGCCCUCAGAGCUCGAGAACAUCUUCGGAUGCAGAGCAGGCAGGCUUCGGUGGCGCGAUAGCGCCAACGUCCUCAACCUUCAAUGCAUCCCACCACAUGAUGAUGCCUGAAGAGCCUUGGUUUUUUG [G45C C88U], the “polymerase ribozyme fitness (log ratio)” value is -0.355.

With GACCAAUCUGCCCUCAGAGCUCGAGAACAUCUUCGGAUGCAGAGCAGGCAGGCUUCGGUGGCGCGAUAGCGCCAACGUCCUCAACCUCCAAUGCAUCCCACCAAAUGAUGAUGCCUGAAAAGCCUUGGUUUUUUG [G45C C104A G120A], the “polymerase ribozyme fitness (log ratio)” value is -1.45.

Turning to GACCAAUCUGCCCUCAGAGCUCGAGAACAUCUUCGGAUGCAGAGCAGGCAGGCUUCGGUGGCGCGAUAGCUCCAACGUCCUCAACCUCCAGUGCAUCCCAUCACAUGAUAAUGCCUGAAGAGCCUUGGUUUUUUG [G45C G71U A91G C101U G110A], the “polymerase ribozyme fitness (log ratio)” value is -5.08.

Turning to GACCAAUCUGCCCUCAGAGCUCGAGAACAUCUUCGGAUGCAGAGCAGGCAGGCUUCGGUGACGCGAUAGCGCCAACGUCCUCAACCUCCAAUGCAUCCCACCACAUGAUGAUGCCUGAAGAGCCUUGGAUUUUUG [G45C G61A U129A], the “polymerase ribozyme fitness (log ratio)” value is -0.659.

As to GACCAAUCUGCCCUCAGAGCUCGAGAACAUCUUCGGAUGCAGAGCAGGCAGGCUACGGUGGCGCGAUAGCGCCAACGUCCUCAACCUCCAAUGCUUCCCACCACAUGAUGAUGUCUGAAGAGCCUUGGUUUUUUG [G45C U55A A95U C114U], the “polymerase ribozyme fitness (log ratio)” value was -3.85.

Consider GACCAAUCUGCCCUCAGAGCUCGAGAACAUCUUCGGAUGCAGAGCAGGCAGGCUUCGGUGGCGCGAUAGCGCCAACGUCCUCAACCUCCAAUGCAUCCCACCACAUGAUGAUGCUUGAAGGGCCUUGAUUUUUUG [G45C C115U A121G G128A], for which the “polymerase ribozyme fitness (log ratio)” value is -4.67.

For the variant GACCAAUCUGCCCUCAGAGCUCGAGAACAUCUUCGGAUGCAGAGCAGGCAAGCUUCGGUGGCGCGAUAGCGCCAACGUCCUCAACCUCCAAUGCAUCCCACCACAUGAUGAUGCCUGAAGAGCCUUGGUUUUUUG [G45C G51A], the “polymerase ribozyme fitness (log ratio)” value was -3.29.

In the case of GACCAAUCUGCCCUCAGAGCUCGAGAACAUCUUCGGAUGCAGAGUAGGCUGGAUUCGGUGGCGCGAUAGCGCCAACGUCCUCAACCUCCAAUGCAUCCCACCACAUGAUGAUGUCUGAAGAGCCUUGGUUUUUUG [G45U A50U C53A C114U], the “polymerase ribozyme fitness (log ratio)” value is -3.7.

For GACCAAUCUGCCCUCAGAGCUCGAGAACAUCUUCGGAUGCAGAGCAGGCAGGCUUCGGUGGCGCGAUAGCGCCAACGUACUCAACCUCCAAUGCAUCCCACCACAUGAUGAUGCCUGAAGAGCCUUGGUUUUUUG [G45C C79A], the “polymerase ribozyme fitness (log ratio)” value was -2.14.

For GACCAAUCUGCCCUCAGAGCUCGAGAACAUCUUCGGAUGCAGAGUCGGCAGGCCUCGGUGGCGCGAUAGCGCCAACGUCCUCAACCUCCGAUGCAUCCCACCACAUGAUGAUGCCUGAAGAGCCUUGGUUUUUUG [G45U A46C U54C A90G], the “polymerase ribozyme fitness (log ratio)” value is -1.94.

Turning to GACCAAUCUGCCCUCAGAGCUCGAGAACAUCUUCGGAUGCAGAGCAGGCAGGCUUCGGUGGCGCGAUAGCGCCAACGUCCUCAACCUCCAAUGCAUCCCACCACAUGAUCAUGCCUGAAGAGCCUUGGUUUUUUG [G45C G110C], the “polymerase ribozyme fitness (log ratio)” value is -5.03.

With GACCAAUCUGCCCUCAGAGCUCGAGAACAUCUUCGGAUGCAGAGCAGGCAGGCUUCGGUGGCCCGAUAGCGCCAACGUCCUCAACCUCCAAUGCAUCCCACCACAUGAUGAUGCCUGAAGAGCCUUGGUUUUUUG [G45C G63C], the “polymerase ribozyme fitness (log ratio)” value was -2.1.

Turning to GACCAAUCUGCCCUCAGAGCUCGAGAACAUCUUCGGAUGCAGAGCAGGCAGGCUUCGGUGGCGCGAUAGCGCCAACGUCCUCAACCCCCAAUGCAUCCCACCACAUGUUGAUGCCUGAAGAGCCUUGGUUUUUUG [G45C U87C A108U], the “polymerase ribozyme fitness (log ratio)” value was -6.32.

For GACCAAUCUGCCCUCAGAGCUCGAGAACAUCUUCGGAUGCAGAGCAGUCAGGCUUCGGUAACGCGAUAGCGCCAACGUCCUCCACCUCCAAUGCAUCCCACCACAUGAUGAUGCCUGAAGAGCCUUGGUUUUUUG [G45C G48U G60A G61A A83C], the “polymerase ribozyme fitness (log ratio)” value was -3.56.

For GACCAAUCUGCCCUCAGAGCUCGAGAACAUCUUCGGAUGCAGAGCAGGCAGGCUUCGGUGGCGCGAUAGCGCCAACGUCCUCAACCUCCAAUGCAUCCCACCACAUGAUGAUGCCUGAAGAGCCUUGGCUUUUUG [G45C U129C], the “polymerase ribozyme fitness (log ratio)” value is -2.28.

With GACCAAUCUGCCCUCAGAGCUCGAGAACAUCUUCGGAUGCAGAGUAGGCGGGCUUCGGUGGCGCGAUAGCGCUAACGUCCUCAACCUCCAAUGCAUCCCACCACAUGAUGAUGCCUGAAGAGCCUUGGUUUUAUG [G45U A50G C73U U133A], the “polymerase ribozyme fitness (log ratio)” value was -1.75.
